Patent US20230212319A1, “NOVEL ANTIGEN BINDING DOMAINS AND SYNTHETIC ANTIGEN RECEPTORS INCORPORATING THE SAME” (University of Southern California, priority 2020, published 2023)

What was measured:
[1] = tested on: RAJI cells; experiment: JNG assay, co-culture with RAJI cells; assay type: cell-based; settings: JNG cells expressing construct, co-culture with Raji
Summary of the method: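 Jurkat-NFAT-GFP (JNG) cells stably expressing SAR constructs via lentiviral transduction and puromycin/blasticidin selection were cocultured with target cells at E:T ~1:2 for ~4–18 h. NFAT-driven GFP was measured by FACS versus parental JNG cells; scores +/- to 5+ denote ~5–50% GFP-positive cells.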

[2] = tested on: RAJI-CD19-KO cells; experiment: JNG assay, co-culture with RAJI-CD19-KO cells; assay type: cell-based; settings: co-culture with Raji-CD19-KO
Procedure: Cellular supernatant is collected and assayed for the induction of cytokines (e.g., IL2).
JNG (Jurkat cells expressing EGFP under an NFAT promoter) were infected with lentiviral vectors encoding different single chain and multi-chain SARs by spinfection in the presence of 8 µg/ml of Polybrene® (Sigma, Catalog no. H9268). The Jurkat-NFAT-GFP cells are engineered in such a way that the IL-2 promoter, which carries NFAT binding sites, is cloned upstream of the GFP gene. These cells have been used to study signaling via TCR and CAR. The different SARs were stably expressed in Jurkat NFAT-GFP cells by lentiviral mediated gene transfer, followed by selection with puromycin or blasticidin. No drug selection was used in case the construct lacked an antibiotic resistance gene. The SAR-expressing Jurkat-NFAT-GFP cells were cocultured with the target cells at E:T ratio of approximately 1:2 for approximately 4 hours to 18 hours. When the interaction between SIRs and their target antigen results in activation of the NFAT pathway, GFP expression is induced. […] GFP expression was monitored by FACS analysis. The Jurkat-NFAT-GFP (parental) cells were used as control. The structure of different constructs can be determined based on their names. […] The sequence of the other constructs in the table can be similarly determined from their names and by referring to the different Tables of this disclosure that provide the names and SEQ ID NO of the different modules. Alternatively, the composition and modular architecture of the different SAR constructs can be determined from their sequences by bioinformatics tools, including using nucleic acid and amino acids homology searches. A SAR is considered positive in the assay in case the SAR expressing Jurkat-NFAT-GFP cells show greater % GFP positive cells when cultured with the target cell line as compared to parental Jurkat-NFAT-GFP cells. […] In general, the number +/-, +, 2+, 3+, 4+, 5+ refer to approximately 5%, 10%, 20%, 30%, 40% and 50% GFP positive cells. The % of GFP induction in the above assay is dependent not only the relative strength of the SAR but also, among other factors, on the relative level of expression of the SAR in the JNG cells and the relative level of expression of the target antigen in the target cell line. To control for the difference in gene transduction efficiency of the different SAR constructs, the experiment was conducted with JNG cells transduced with SAR constructs co-expressing a drug resistance gene (e.g., puromycin or PAC) followed by drug selection to generate a stable population of SAR-expressing cells. It is to be noted that the drug resistance gene (e.g., PAC) in the SAR constructs is optional and in vivo studies were conducted with SAR constructs lacking the PAC gene.

| Molecule | NFAT-GFP ASSAY: Raji [1] | NFAT-GFP ASSAY: Raji-CD19-KO [2] |
| --- | --- | --- |
| 22121 (protein) MALPVTALLLPLALLLHAARPDIQMTQSPSSLSASVGDRVTITCKASDHINNWLAWYQQKPGQAPKLLIYGATTLETGVPSRFSGSGSGTDYTLTISSLQPEDFATYYCQQSWNTPWTFGQGTKLEIKRLEGQPKANPTVTLFPPSSEELQANKATLVCLISDFYPGAVTVAWKADGSPVKAGVETTKPSKQSNNKYAASSYLSLTPEQWKSHRSYSCQVTHEGSTVEKTVAPTECSPIKTDVITMDPKDNCSKDANDTLLLQLTNTSAYYMYLLLLLKSVVYFAIITCCLLRRTAFCCNGEKSRAKRSGSGATNFSLLKQAGDVEENPGPTSATMDWIWRILFLVGAATGAHSGPQVQLQESGGGLAQAGGSLRLSCAASGRTFSMGWFRQAPGKEREFVAAITYSGGSPYYASSVRGRFTISRDNAKNTVYLQMNSLKPEDTAVYYCAANPTYGSDWNAENWGQGTQVTVSSGSGGGGSGGGGSGGGGSFEQVQLQQPGAELVKPGASVKMSCKASGYAFSSYWINWMKQKPGQGLEWIGQIYPGDGDTNYNGKFKGRATLTADTSSSTAYMQLSSLTSEDSAVYFCARSITTVVGCAMDYWGQGTSVTVSSTRASTKGPSVFPLAPSSKSTSGGTAALGCLVKDYFPEPVTVSWNSGALTSGVHTFPAVLQSSGLYSLSSVVTVPSSSLGTQTYICNVNHKPSNTKVDKRVEPKSCEVKTDSTDHVKPKETENTKQPSKSCHKPKAIVHTEKVNMMSLTVLGLRMLFAKTVAVNFLLTAKLFFLRAKRSGSGVKQTLNFDLLKLAGDVESNPGPSRGHMTEYKPTVRLATRDDVPRAVRTLAAAFADYPATRHTVDPDRHIERVTELQELFLTRVGLDIGKVWVADDGAAVAVWTTPESVEAGAVFAEIGPRMAELSGSRLAAQQQMEGLLAPHRPKEPAWFLATVGVSPDHQGKGLGSAVVLPGVEAAERAGVPAFLETSAPRNLPFYERLGFTVTADVEVPEGPRTWCMTRKPGA | 5+ (refer to approximately 5%, 10%, 20%, 30%, 40% and 50% GFP positive cells) | 4+ (refer to approximately 5%, 10%, 20%, 30%, 40% and 50% GFP positive cells) |
| 22167 (protein) MALPVTALLLPLALLLHAARPEVQLQESGGGLVQPGGSLRLSCAASGRTFSSLFMGWVRQAPGKGLELVSAISRYSLYTYYADSVKGRFTISRDNAKNTLYLQMNSLRPEDTAVYYCASKLEYTSNDYDSWGQGTLVTVSSGTGGGGSGGGGSGGGGSEFDIQMTQSPSSLSASVGDRVTITCKASDHINNWLAWYQQKPGQAPKLLIYGATTLETGVPSRFSGSGSGTDYTLTISSLQPEDFATYYCQQSWNTPWTFGQGTKLEIKRLEIQNPDPAVYQLRDSKSSDKSVCLFTDFDSQTNVSQSKDSDVYITDKCVLDMRSMDFKSNSAVAWSNKSDFACANAFNNSIIPEDTFFPSSDVPCDVKLVEKSFETDTNLNFQNLSVIGFRILLLKVAGFNLLMTLRLWSSRAKRSGSGVKQTLNFDLLKLAGDVESNPGPTSATMDWIWRILFLVGAATGAHSGPQVQLQESGGGLAQAGGSLRLSCAASGRTFSMGWFRQAPGKEREFVAAITYSGGSPYYASSVRGRFTISRDNAKNTVYLQMNSLKPEDTAVYYCAANPTYGSDWNAENWGQGTQVTVSSGSGGGGSGGGGSGGGGSFEQVQLQQPGAELVKPGASVKMSCKASGYAFSSYWINWMKQKPGQGLEWIGQIYPGDGDTNYNGKFKGRATLTADTSSSTAYMQLSSLTSEDSAVYFCARSITTVVGCAMDYWGQGTSVTVSSTREDLKNVFPPEVAVFEPSKAEIAHTQKATLVCLATGFYPDHVELSWWVNGKEVHSGVCTDPQPLKEQPALNDSRYCLSSRLRVSATFWQNPRNHFRCQVQFYGLSENDEWTQDRAKPVTQIVSAEAWGRADCGITSASYHQGVLSATILYEILLGKATLYAVLVSALVLMAMVKRKDSRGRAKRSGSGATNFSLLKQAGDVEENPGPSRGHMTEYKPTVRLATRDDVPRAVRTLAAAFADYPATRHTVDPDRHIERVTELQELFLTRVGLDIGKVWVADDGAAVAVWTTPESVEAGAVFAEIGPRMAELSGSRLAAQQQMEGLLAPHRPKEPAWFLATVGVSPDHQGKGLGSAVVLPGVEAAERAGVPAFLETSAPRNLPFYERLGFTVTADVEVPEGPRTWCMTRKPGA | + (refer to approximately 5%, 10%, 20%, 30%, 40% and 50% GFP positive cells) | + (refer to approximately 5%, 10%, 20%, 30%, 40% and 50% GFP positive cells) |
| 22168 (protein) MALPVTALLLPLALLLHAARPEVQLVESGGGLVQPGGSLRLSCEASGFASDDYIIGWFRQAPGKEREGVSCISSKYANTVYTDSVKGRFRLSRGTAKNTVYLQMSALKPEDTAVYYCAMDSRRVTCPEISTMHRNFDSWGQGTLVTVSSGTGGGGSGGGGSGGGGSEFDIQMTQSPSSLSASVGDRVTITCKASDHINNWLAWYQQKPGQAPKLLIYGATTLETGVPSRFSGSGSGTDYTLTISSLQPEDFATYYCQQSWNTPWTFGQGTKLEIKRLEIQNPDPAVYQLRDSKSSDKSVCLFTDFDSQTNVSQSKDSDVYITDKCVLDMRSMDFKSNSAVAWSNKSDFACANAFNNSIIPEDTFFPSSDVPCDVKLVEKSFETDTNLNFQNLSVIGFRILLLKVAGFNLLMTLRLWSSRAKRSGSGVKQTLNFDLLKLAGDVESNPGPTSATMDWIWRILFLVGAATGAHSGPQVQLQESGGGLAQAGGSLRLSCAASGRTFSMGWFRQAPGKEREFVAAITYSGGSPYYASSVRGRFTISRDNAKNTVYLQMNSLKPEDTAVYYCAANPTYGSDWNAENWGQGTQVTVSSGSGGGGSGGGGSGGGGSFEQVQLQQPGAELVKPGASVKMSCKASGYAFSSYWINWMKQKPGQGLEWIGQIYPGDGDTNYNGKFKGRATLTADTSSSTAYMQLSSLTSEDSAVYFCARSITTVVGCAMDYWGQGTSVTVSSTREDLKNVFPPEVAVFEPSKAEIAHTQKATLVCLATGFYPDHVELSWWVNGKEVHSGVCTDPQPLKEQPALNDSRYCLSSRLRVSATFWQNPRNHFRCQVQFYGLSENDEWTQDRAKPVTQIVSAEAWGRADCGITSASYHQGVLSATILYEILLGKATLYAVLVSALVLMAMVKRKDSRGRAKRSGSGATNFSLLKQAGDVEENPGPSRGHMTEYKPTVRLATRDDVPRAVRTLAAAFADYPATRHTVDPDRHIERVTELQELFLTRVGLDIGKVWVADDGAAVAVWTTPESVEAGAVFAEIGPRMAELSGSRLAAQQQMEGLLAPHRPKEPAWFLATVGVSPDHQGKGLGSAVVLPGVEAAERAGVPAFLETSAPRNLPFYERLGFTVTADVEVPEGPRTWCMTRKPGA | 3+ (refer to approximately 5%, 10%, 20%, 30%, 40% and 50% GFP positive cells) | 2+ (refer to approximately 5%, 10%, 20%, 30%, 40% and 50% GFP positive cells) |
